Data published in patent publication US9290794B2, “Mutant protease biosensors with enhanced detection characteristics” (PROMEGA CORPORATION, priority 2010, dated 2016).

Tested on: caspase-3
Test: CBS variants transiently transfected in HEK293 cells, kinetic luminescence response to TRAIL treatment
Assay type: cell-based
Settings: for RESPONSE, IMPROVEMENT OVER TL-CP358-DEVD:DD: ratio of INDUCED to BASAL; for BASAL, IMPROVEMENT OVER TL-CP358-DEVD:DD: time (0); for greater RESPONSE compared with TL-CP358-DEVD:DD: live cells (FIGS. 2, 3)
Excerpt: The Caspase-3 BioSensor (CBS) is a thermostable Photuris pennsylvanica luciferase (TL), circularly-permuted (CP) at amino acid 358, with a caspase-3 recognition site, i.e., one containing the caspase-3 recognition site comprising amino acids DEVD, at the junction between the TL fragments. The specific CBS that was used as the starting template is termed TL-CP358-DEVD:DD. The amino acid sequence of this CBS can be represented as: M/TL residues 358-544/SDEVDGSL/TL residues 4-354/V (SEQ ID NO:6). The amino acid positions in the CP TL correlate to those of the non-CP TL sequence (provided in the attached appendix). Upon treatment with caspase-3, CBS is cleaved at the recognition site allowing the two TL fragments to form a more favorable, higher activity, conformation.
The utility of CBS is the differential activity before and after cleavage by caspase-3. The basal activity of CBS is defined as the activity at assay time (O), before caspase-3 has had time to cleave at the recognition site. The induced activity is defined as the activity at some later time (t) after CBS has been cleaved by caspase-3. The response or fold increase in activity, is the ratio of induced to basal activity. Substitutions in TL-CP358-DEVD:DD were generated to develop CBS variants with enhanced responsivity to induction using the error-prone, mutagenic PCR-based system GeneMorph II (Stratagene; Daugherty, PNAS USA 97(5):2029 (2000)), according to manufacturer's instructions.
The resulting library was expressed in E. coli and screened for luciferase activity with and without pre-treatment with recombinant caspase-3 (data not shown). CBS variants having the best signal and response characteristics were then evaluated in HEK293 cells by kinetic assay measuring the response to TNF-α-related apoptosis inducing ligand (TRAIL) treatment (Wiley, S. R. et al., Immunity 3:673 (1995); Niles, A. L. et al., Meth. Mol. Biol. 414:137 (2008)). TRAIL induces apoptosis via activation of the death receptor to form active caspase-8, which in turn activates procaspase 3 to produce caspase-3. The appearance of active caspase-3 should be accompanied by an increase in luminescence as the CBS variants are cleaved and activated. Briefly, HEK293 cells, plated at 15,000 cells/well in a 96-well plate, were transiently transfected using TransIT-LTI (Mires Bio) with plasmid DNAs encoding various CBS variants with amino acid substitutions in TL-CP358-DEVD:DD. The same plasmids also carried a gene for constitutive expression of Renilla luciferase to act as a transfection control. Cells were pretreated with 2 mM luciferin for 2 hrs at 37° C. Cells were treated with 1 μg/mL TRAIL and assayed for 10 hrs at 37° C. Luminescence was monitored continuously over time (Luminometer: Varioskan Flash (Thermo) 1 sec integration time). Cells in replicate wells were lysed, at the time of TRAIL addition, i.e., time (0) and Renilla luciferase activity was measured. All biosensor data was then normalized for transfection efficiency using Renilla luciferase luminescence (Dual-GloAssay System; Promega Corporation).
Table 1 lists the variants of TL-CP358-DEVD:DD, identified by clone name, showing improved response to TRAIL treatment. Improvements listed in Table 1 are normalized to the parental TL-CP358-DEVD:DD CBS. “BASAL” represents the normalized biosensor luminescence at TRAIL addition, i.e., time (0), “INDUCED” represents the normalized biosensor luminescence at roughly 10 hrs after TRAIL addition, and “RESPONSE” represents the fold-induction, i.e., the ratio of INDUCED to BASAL activity.
Additional CBS variants were generated using the oligo-based site-directed mutagenesis kit Quik Change (Stratagene; Kunkel, PNAS USA 82(2):488 (1985)), according to the manufacturer's instructions. […]

[1] = Table 2 combination variants, roughly 10 hrs after TRAIL, HEK293
[2] = Table 2 combination variants, HEK293 as in Example I

B1: 01:A-05: CBS variant of TL-CP358-DEVD:DD, 507TI (SEQ ID NOs:7 and 8) (protein)
chain: MPGSTGKIVPLHAVKVVDPTTGKILGPNEPGELYFKGPMIMKGYYNNEEATKAIIDNDGWLRSGDIAYYDNDGHFYIVDRLKSLIKYKGYQVAPAEIEGILLQHPYIVDAGVTGIPDEAAGELPAAGVVVQTGKYLNEQIVQDYVASQVSIAKWLRGGVKFLDEIPKGSTGKIDRKVLRQMLEKHTNGSDEVDGSLKNILYGPEPFYPLEDGTAGEQMFDALSRYAAIPGCIALTNAHTKENVLYEEFLKLSCRLAESFKKYGLKQNDTIAVCSENSLQFFLPVIASLYLGIIVAPVNDKYIERELIHSLGIVKPRIVFCSKNTFQKVLNVKSKLKSIETIIILDLNEDLGGYQCLNNFISQNSDSNLDVKKFKPYSFNRDDQVASIMFSSGTTGLPKGVMLTHKNIVARFSIAKDPTFGNAINPTSAILTVIPFHHGFGMMTTLGYFTCGFRVVLMHTFEEKLFLQSLQDYKVESTLLVPTLMAFLAKSALVEKYDLSHLKEIASGGAPLSKEIGEMVKKRFKLNFVRQGYGLTETTSAVLITPKGV
RESPONSE, IMPROVEMENT OVER TL-CP358-DEVD:DD (Table 1, fold-induction, normalized to parental): 3.6 fold | BASAL, IMPROVEMENT OVER TL-CP358-DEVD:DD (Table 1, normalized biosensor luminescence at TRAIL addition, HEK293, normalized to parental): 0.2 fold | INDUCED, IMPROVEMENT OVER TL-CP358-DEVD:DD (Table 1, normalized luminescence roughly 10 hrs after 1 μg/mL TRAIL, HEK293, normalized to parental): 0.6 fold | greater RESPONSE compared with TL-CP358-DEVD:DD (after 2 hrs TRAIL treatment): 2 times | greater RESPONSE compared with TL-CP358-DEVD:DD (after 10 hrs TRAIL treatment): about 4.8 times

B2: FC7: 24: CBS variant, 193SP 471IT 503SG 507TI (SEQ ID NOs:9 and 10) (protein)
chain: MPGSTGKIVPLHAVKVVDPTTGKILGPNEPGELYFKGPMIMKGYYNNEEATKAIIDNDGWLRSGDIAYYDNDGHFYIVDRLKSLIKYKGYQVAPAEIEGILLQHPYIVDAGVTGTPDEAAGELPAAGVVVQTGKYLNEQIVQDYVAGQVSIAKWLRGGVKFLDEIPKGSTGKIDRKVLRQMLEKHTNGSDEVDGSLKNILYGPEPFYPLEDGTAGEQMFDALSRYAAIPGCIALTNAHTKENVLYEEFLKLSCRLAESFKKYGLKQNDTIAVCSENSLQFFLPVIASLYLGIIVAPVNDKYIERELIHSLGIVKPRIVFCSKNTFQKVLNVKSKLKSIETIIILDLNEDLGGYQCLNNFISQNSDSNLDVKKFKPYSFNRDDQVAPIMFSSGTTGLPKGVMLTHKNIVARFSIAKDPTFGNAINPTSAILTVIPFHHGFGMMTTLGYFTCGFRVVLMHTFEEKLFLQSLQDYKVESTLLVPTLMAFLAKSALVEKYDLSHLKEIASGGAPLSKEIGEMVKKRFKLNFVRQGYGLTETTSAVLITPKGV
RESPONSE, IMPROVEMENT OVER TL-CP358-DEVD:DD (Table 2 combination variants): 5.480 fold | INDUCED, IMPROVEMENT OVER TL-CP358-DEVD:DD [1]: 0.191 fold | BASAL, IMPROVEMENT OVER TL-CP358-DEVD:DD [2]: 0.035 fold | greater RESPONSE compared with TL-CP358-DEVD:DD (after 2 hrs TRAIL treatment): about 2 times

B3: FC7: 43: CBS variant, 471IT 503SG 507TI (SEQ ID NOs:11 and 12) (protein)
chain: MPGSTGKIVPLHAVKVVDPTTGKILGPNEPGELYFKGPMIMKGYYNNEEATKAIIDNDGWLRSGDIAYYDNDGHFYIVDRLKSLIKYKGYQVAPAEIEGILLQHPYIVDAGVTGTPDEAAGELPAAGVVVQTGKYLNEQIVQDYVAGQVSIAKWLRGGVKFLDEIPKGSTGKIDRKVLRQMLEKHTNGSDEVDGSLKNILYGPEPFYPLEDGTAGEQMFDALSRYAAIPGCIALTNAHTKENVLYEEFLKLSCRLAESFKKYGLKQNDTIAVCSENSLQFFLPVIASLYLGIIVAPVNDKYIERELIHSLGIVKPRIVFCSKNTFQKVLNVKSKLKSIETIIILDLNEDLGGYQCLNNFISQNSDSNLDVKKFKPYSFNRDDQVASIMFSSGTTGLPKGVMLTHKNIVARFSIAKDPTFGNAINPTSAILTVIPFHHGFGMMTTLGYFTCGFRVVLMHTFEEKLFLQSLQDYKVESTLLVPTLMAFLAKSALVEKYDLSHLKEIASGGAPLSKEIGEMVKKRFKLNFVRQGYGLTETTSAVLITPKGV
RESPONSE, IMPROVEMENT OVER TL-CP358-DEVD:DD (Table 2 combination variants): 6.735 fold | INDUCED, IMPROVEMENT OVER TL-CP358-DEVD:DD [1]: 0.189 fold | BASAL, IMPROVEMENT OVER TL-CP358-DEVD:DD [2]: 0.028 fold | greater RESPONSE compared with TL-CP358-DEVD:DD (after 10 hrs TRAIL treatment): about 2.2 times

B4: FC7: 49: CBS variant, 193SP 503SG 507TI (SEQ ID NOs:13 and 14) (protein)
chain: MPGSTGKIVPLHAVKVVDPTTGKILGPNEPGELYFKGPMIMKGYYNNEEATKAIIDNDGWLRSGDIAYYDNDGHFYIVDRLKSLIKYKGYQVAPAEIEGILLQHPYIVDAGVTGIPDEAAGELPAAGVVVQTGKYLNEQIVQDYVAGQVSIAKWLRGGVKFLDEIPKGSTGKIDRKVLRQMLEKHTNGSDEVDGSLKNILYGPEPFYPLEDGTAGEQMFDALSRYAAIPGCIALTNAHTKENVLYEEFLKLSCRLAESFKKYGLKQNDTIAVCSENSLQFFLPVIASLYLGIIVAPVNDKYIERELIHSLGIVKPRIVFCSKNTFQKVLNVKSKLKSIETIIILDLNEDLGGYQCLNNFISQNSDSNLDVKKFKPYSFNRDDQVAPIMFSSGTTGLPKGVMLTHKNIVARFSIAKDPTFGNAINPTSAILTVIPFHHGFGMMTTLGYFTCGFRVVLMHTFEEKLFLQSLQDYKVESTLLVPTLMAFLAKSALVEKYDLSHLKEIASGGAPLSKEIGEMVKKRFKLNFVRQGYGLTETTSAVLITPKGV
RESPONSE, IMPROVEMENT OVER TL-CP358-DEVD:DD (Table 2 combination variants): 5.115 fold | INDUCED, IMPROVEMENT OVER TL-CP358-DEVD:DD [1]: 0.852 fold | BASAL, IMPROVEMENT OVER TL-CP358-DEVD:DD [2]: 0.167 fold | greater RESPONSE compared with TL-CP358-DEVD:DD (after 2 hrs TRAIL treatment): about 2 times
